This passage reports stoichiometry N results from publication doi:10.1101/2020.08.10.242008.

This test has as its target T1, Full-length wild-type rat TRPV2 (transient receptor potential vanilloid 2) (rat), Q9WUD2.
T1 chain: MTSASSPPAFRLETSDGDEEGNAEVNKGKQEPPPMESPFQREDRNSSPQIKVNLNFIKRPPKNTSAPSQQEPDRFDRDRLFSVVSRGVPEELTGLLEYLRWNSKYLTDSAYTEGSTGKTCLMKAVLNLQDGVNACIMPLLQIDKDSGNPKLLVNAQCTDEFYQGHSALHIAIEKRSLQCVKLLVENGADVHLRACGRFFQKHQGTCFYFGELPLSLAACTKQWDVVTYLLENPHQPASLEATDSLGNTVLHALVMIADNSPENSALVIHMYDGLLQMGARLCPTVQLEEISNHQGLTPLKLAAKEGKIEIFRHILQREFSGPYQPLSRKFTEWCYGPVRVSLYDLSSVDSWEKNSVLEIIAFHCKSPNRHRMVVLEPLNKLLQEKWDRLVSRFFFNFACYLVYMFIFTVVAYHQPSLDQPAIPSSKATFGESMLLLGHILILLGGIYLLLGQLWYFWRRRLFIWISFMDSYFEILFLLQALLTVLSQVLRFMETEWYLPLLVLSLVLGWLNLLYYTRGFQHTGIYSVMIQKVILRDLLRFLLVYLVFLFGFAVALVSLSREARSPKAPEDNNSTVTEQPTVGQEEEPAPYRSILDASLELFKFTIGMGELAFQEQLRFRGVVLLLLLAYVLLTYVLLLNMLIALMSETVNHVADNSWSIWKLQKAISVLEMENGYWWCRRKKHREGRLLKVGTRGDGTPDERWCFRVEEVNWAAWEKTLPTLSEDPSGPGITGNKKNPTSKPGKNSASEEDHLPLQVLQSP
The test can be described thus: cryo-EM structure. Conditions: remark: other sources report otherwise.

B1: Full-length wild-type rat TRPV2 (transient receptor potential vanilloid 2), Q9WUD2 1-761 (natural protein)
chain: MTSASSPPAFRLETSDGDEEGNAEVNKGKQEPPPMESPFQREDRNSSPQIKVNLNFIKRPPKNTSAPSQQEPDRFDRDRLFSVVSRGVPEELTGLLEYLRWNSKYLTDSAYTEGSTGKTCLMKAVLNLQDGVNACIMPLLQIDKDSGNPKLLVNAQCTDEFYQGHSALHIAIEKRSLQCVKLLVENGADVHLRACGRFFQKHQGTCFYFGELPLSLAACTKQWDVVTYLLENPHQPASLEATDSLGNTVLHALVMIADNSPENSALVIHMYDGLLQMGARLCPTVQLEEISNHQGLTPLKLAAKEGKIEIFRHILQREFSGPYQPLSRKFTEWCYGPVRVSLYDLSSVDSWEKNSVLEIIAFHCKSPNRHRMVVLEPLNKLLQEKWDRLVSRFFFNFACYLVYMFIFTVVAYHQPSLDQPAIPSSKATFGESMLLLGHILILLGGIYLLLGQLWYFWRRRLFIWISFMDSYFEILFLLQALLTVLSQVLRFMETEWYLPLLVLSLVLGWLNLLYYTRGFQHTGIYSVMIQKVILRDLLRFLLVYLVFLFGFAVALVSLSREARSPKAPEDNNSTVTEQPTVGQEEEPAPYRSILDASLELFKFTIGMGELAFQEQLRFRGVVLLLLLAYVLLTYVLLLNMLIALMSETVNHVADNSWSIWKLQKAISVLEMENGYWWCRRKKHREGRLLKVGTRGDGTPDERWCFRVEEVNWAAWEKTLPTLSEDPSGPGITGNKKNPTSKPGKNSASEEDHLPLQVLQSP
A word on the stoichiometry N: it is a count of units in the complex or per binding partner. B1 came in with a stoichiometry N of 4.
